{"source": "patent US20230242592A1", "about": "“IDENTIFICATION OF […] PEPTIDES AND USES THEREOF” (priority 2020, published 2023)", "key": {"[1]": {"tested_on": "SARS-CoV-2 spike protein pseudotyped lentivirus", "assay": "SARS-CoV-2 spike pseudotyped lentivirus infection of ACE2-HEK293 cells (luciferase)", "format": "cell-based", "settings": "0.33 uM"}, "SARS-CoV-2 spike RBD": {"target": "SARS-CoV-2 spike RBD (Severe acute respiratory syndrome coronavirus 2, UniProt P0DTC2)"}, "[2]": {"target": "interaction between RBD and the neutralizing antibody (Severe acute respiratory syndrome coronavirus 2, UniProt P0DTC2)", "settings": "read-out: IC50 of inhibiting interaction between RBD and the neutralizing antibody"}, "ACE2-HEK293 cells": {"tested_on": "ACE2-HEK293 cells", "assay": "Trypan blue toxicity in ACE2-HEK293 cells in the presence of virus", "settings": "different concentrations; viability ca. 50%"}}, "data": [{"substance": "ACE2", "values": [{"measurement": "inhibition of pseudotyped virus infection", "setting": "[1]", "result": "virtually complete inhibition"}, {"measurement": "RMax, binding to RBD", "setting": "SARS-CoV-2 spike RBD", "result": "0.5785 ± 0.01557"}, {"measurement": "Kd", "setting": "SARS-CoV-2 spike RBD; read-out: dissociation constant / binding affinity with RBD", "result": "~3", "unit": "nM"}, {"measurement": "IC50", "setting": "[2]", "result": "30 to 35", "unit": "nM"}, {"measurement": "change in cell viability in the presence of virus", "setting": "ACE2-HEK293 cells", "result": "did not result in statistically significant changes in cell viability"}]}]}
